The target of test [1] is T1, dog AGR2 (dog, UniProt O95994 21-175 (human entry), limits assumed).
T1 construct: Whole entry as named
T1 chain: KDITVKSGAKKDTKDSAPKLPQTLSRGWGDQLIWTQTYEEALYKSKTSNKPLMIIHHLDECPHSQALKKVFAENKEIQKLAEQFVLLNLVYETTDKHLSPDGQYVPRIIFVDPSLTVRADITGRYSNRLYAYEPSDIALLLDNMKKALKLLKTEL
Kind of test: ELISA, antigen coated at 1 µg/mL, antibody titrated.

Test [2] has as its target T2, macaque AGR2 (macaque (rhesus monkey), UniProt O95994 21-175 (human entry), limits assumed).
T2 construct: Whole entry as named; also called rhesus monkey AGR2
T2 chain: T1 chain with K1R, I3T, S7P, A17R, I109L, S135A, I137T
The test is described as above.

Test [3] deals with T3, human AGR2 E60A (human, UniProt O95994 21-175).
T3 construct: Whole entry as named; also called monomeric AGR2
T3 chain: T1 chain with K1R, I3T, S7P, A17R, E40A, I109M, S135A, I137T
The test is described as above.

Test [4] addresses T4, human AGR2 WT (human, UniProt O95994 21-175).
T4 construct: also called hAGR2; recombinant human AGR2
T4 sequence: T1 chain with K1R, I3T, S7P, A17R, I109M, S135A, I137T
The description is as above.

In test [5] the target is T5, mouse AGR2 (mouse, UniProt O88312 21-175).
T5 construct: Whole entry as named
T5 sequence: T1 chain with I3T, T13P, A17R, K44R, K50R, I54V, N74H, I109V, I137T, L141Y
The description is as above.

Test [6] addresses T4, human AGR2 WT. Kind of test: kinetics of Table 4, antibody immobilized, hAGR2 analyte.
In test [7] the target is T4, human AGR2 WT. Kind of test: kinetics, antibody immobilized, hAGR2 soluble analyte; instrument not stated.
Test [8] addresses T6, human AGR3 (human, UniProt Q8TD06 22-166, limits assumed).
T6 construct: Closest family member of AGR2, used as a specificity control in the ELISA
T6 sequence (looked up): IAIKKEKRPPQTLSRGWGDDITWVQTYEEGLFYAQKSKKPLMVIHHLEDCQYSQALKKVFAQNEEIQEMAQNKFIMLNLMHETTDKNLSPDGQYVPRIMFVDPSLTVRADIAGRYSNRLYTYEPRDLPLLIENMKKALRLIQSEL
Kind of test: ELISA on plate-coated antigen (1 µg/mL); antibody titrated 10 µg/mL to 0.15 ng/mL; anti-human IgG-HRP, OD 450 nm.

Test [9] addresses T7, BSA (UniProt P02769 25-607).
T7 construct: Negative control coating in the ELISA
The test is described as above.

Test [10] addresses T6, human AGR3. The description is as above. The source holds these as a separate data set.
The target in test [11] is T7, BSA. The test is described as above. The source holds these as a separate data set.
Test [12] deals with T6, human AGR3. The description is as above. The source holds these as a separate data set.
Test [13] has as its target T7, BSA. Described as above. The source holds these as a separate data set.
Test [14] addresses T6, human AGR3. Described as above. This is another data set of the same source.
Test [15] deals with T7, BSA. Described as above. This is another data set of the same source.
Test [16] addresses T6, human AGR3. The description is as above. This is another data set of the same source.
Test [17] deals with T7, BSA. Described as above. The source holds these as a separate data set.
In test [18] the target is T6, human AGR3. Described as above. The source holds these as a separate data set.
Test [19] addresses T7, BSA. The test is described as above. The source holds these as a separate data set.

Numbering of substitutions follows the chain as printed. Like-named read-outs stand apart in the source and are kept apart here. Where only a bound is given, the exact number is not on record here.

From US20260193331A1 (THABOR THERAPEUTICS, published 2026) come the findings set out here.

T7 sequence (P02769 25-607 limits assumed): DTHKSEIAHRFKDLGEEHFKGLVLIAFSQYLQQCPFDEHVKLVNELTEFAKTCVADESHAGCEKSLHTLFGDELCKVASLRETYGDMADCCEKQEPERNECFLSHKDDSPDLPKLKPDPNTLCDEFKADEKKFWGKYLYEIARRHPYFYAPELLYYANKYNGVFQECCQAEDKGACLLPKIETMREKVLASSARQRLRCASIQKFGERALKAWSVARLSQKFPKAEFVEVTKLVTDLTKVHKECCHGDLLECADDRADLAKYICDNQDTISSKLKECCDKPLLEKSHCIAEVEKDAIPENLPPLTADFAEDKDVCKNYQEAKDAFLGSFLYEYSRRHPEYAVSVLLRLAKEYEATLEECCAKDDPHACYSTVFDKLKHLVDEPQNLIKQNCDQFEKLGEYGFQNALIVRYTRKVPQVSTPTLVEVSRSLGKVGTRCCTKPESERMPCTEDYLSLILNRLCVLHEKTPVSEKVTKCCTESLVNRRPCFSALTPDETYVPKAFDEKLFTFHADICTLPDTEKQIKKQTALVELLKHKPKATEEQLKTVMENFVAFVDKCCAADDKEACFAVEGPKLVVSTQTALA

B1: TH-115 IgG1-LALA humanized monoclonal antibody (antibody, V domains shown)
VH: QVQLLESGGGLVKPGGSLRLSCATSGYVFSRSWMNWIRQAPGQGLEWIGWIYPGDGDTNYNGKVKDRFTLSADKAKNSVYLQMNSLRAEDTAVYFCARGGYDGSPWLSYWGQGTLVTVSS
VL: EIVLTQSPDFQSVTPKEKVTITCKASQDINSYLSWFQQKPDQSPKTLIYRANRLVDGVPSRFSGSGSGQDFTLTINSLEAEDAATYYCLQYDEFPFTFGGGTKVEIKR
For the molecule B1, the EC50 in test [1] was 0.6 nM; in [2] it was 0.62 nM; in test [3] it was 1.29 nM; in test [4], 0.813 nM; in test [5], 0.5 nM. In addition, the values for the Kd in test [6] and in test [7] were below 0.15 nM and 0.063 nM, respectively. This molecule also yielded a koff in test [7] of 1.94e-05 s⁻¹. Moreover, the association rate constant (kon) in test [7] is 308000 M⁻¹ s⁻¹. Further, the binding result in test [8] and in test [9] was “no binding (tested: 10 µg/mL)” each time.

B2: TH-101 IgG1-LALA humanized monoclonal antibody (antibody, V domains shown)
VH: QVQLVQSGAEVKKPGASVKVSCKTSGYVFSRSWMNWVRQAPGQGLEWIGWIYPGDGDTNYNGKFKDRVTLTADKSTSTVYMELSSLRSEDTAVYFCARGGYDGSPWLSYWGQGTLVTVSS
VL: DIQMTQSPSSLSASVGDRVTITCKASQDINSYLSWFQQKPGKAPKTLIYRANRLVDGVPSRFSGSGSGQDFTLTISSLQPEDIATYYCLQYDEFPFTFGGGTKVEIKR
In the case of B2, the half-maximal effective concentration (EC50) came out at 0.42 nM in test [1]; 0.48 nM in [2]; 1.24 nM in test [3]; 0.52 nM in [4]; 0.28 nM in test [5]. Further, the results for the dissociation constant (Kd) in test [6] and in test [7] were below 0.15 nM and 0.116 nM, respectively. The molecule further yielded a koff in [7] of 3.52e-05 s⁻¹. For the same molecule, in test [7], the kon worked out at 303000 M⁻¹ s⁻¹. In addition, the binding result in [10] and in test [11] was “no binding (tested: 10 µg/mL)” in each case.

B3: TH-104 IgG1-LALA humanized monoclonal antibody (antibody, V domains shown)
VH: QVQLVQSGSELKKPGASVKVSCKTSGYVFSRSWMNWVRQAPGQGLEWIGWIYPGDGDTNYNGKFKDRFVLSADKSVSTVYLQISSLKAEDTAVYFCARGGYDGSPWLSYWGQGTLVTVSS
VL: B2 VL
Turning to B3, the EC50 in test [1] turned out to be 0.48 nM; in test [2], 0.44 nM; in [3] it was 0.92 nM; in test [4] it was 0.527 nM; in [5] it was 0.3 nM. Also, the Kd in test [6] was below 0.15 nM; in test [7] it was 0.0278 nM. Moreover, the koff in [7] was 8.23e-06 s⁻¹. For the same molecule, in test [7], the kon came out at 296000 M⁻¹ s⁻¹. The binding result in test [12] and in [13] was “no binding (tested: 10 µg/mL)” throughout.

B4: TH-106 IgG1-LALA humanized monoclonal antibody (antibody)
heavy: not shown
light: EIVLTQSPATLSLSPGERATLSCKASQDINSYLSWFQQKPGQAPRTLIYRANRLVDGIPARFSGSGSGQDFTLTISSLEPEDFAVYYCLQYDEFPFTFGGGTKVEIKRTVAAPSVFIFPPSDEQLKSGTASVVCLLNNFYPREAKVQWKVDNALQSGNSQESVTEQDSKDSTYSLSSTLTLSKADYEKHKVYACEVTHQGLSSPVTKSFNRGEC
In the case of B4, the EC50 in [1] is 0.547 nM; in test [2], 0.547 nM; in [3] it was 0.96 nM; in [4], 0.633 nM; in [5] it was 0.313 nM. The Kd is below 0.15 nM in [6] and 0.00327 nM in [7]. The molecule further returned a koff in test [7] of 1.07e-06 s⁻¹. This molecule came in with a kon in test [7] of 326000 M⁻¹ s⁻¹. Besides, the binding result in test [14] and in test [15] was “no binding (tested: 10 µg/mL)” each time.

B5: TH-106 IgG1 humanized monoclonal antibody (antibody)
heavy: not shown
light: B4 light
For B5, the EC50 in [1] was found to be 0.66 nM; in [2], 0.553 nM; in test [3], 1.1 nM; in test [4], 0.853 nM; in [5] it was 0.3 nM. In addition, the binding result in [16] and in test [17] was “no binding (tested: 10 µg/mL)” throughout.

B6: TH-109 IgG1-LALA humanized monoclonal antibody (antibody, V domains shown)
VH: B3 VH
VL: EIVLTQSPATLSLSPGERATLSCKASQDINSYLSWFQQKPGQAPRTLIYRANRLVDGIPARFSGSGSGQDFTLTISSLEPEDFAVYYCLQYDEFPFTFGGGTKVEIKR
As for B6, the EC50 in test [1] was determined as 2.31 nM; in test [2], 2.15 nM; in [3], 3.57 nM; in test [4], 2.37 nM; in test [5], 2.03 nM. Further, the figures for the Kd in test [6] and in test [7] were below 0.15 nM and 0.0265 nM, respectively. In addition, the koff in [7] stood at 8.74e-06 s⁻¹. In [7], this molecule returned a kon of 329000 M⁻¹ s⁻¹. Also, the binding result in test [18] and in test [19] was “no binding (tested: 10 µg/mL)” each time.
